{"source": "patent US20130266536A1", "about": "“METHOD OF USE OF STABILIZED PLANT-DERIVED GROWTH FACTOR IN SKIN CARE” (priority 2010, published 2013)", "assay": "Stability challenge test of plant-made EGF in formulation 1", "type": "physicochemical", "details": "reconstituted freeze-dried non-glycosylated EGF in formulation 1; +4° C., RT and +37° C.; up to 3 weeks; gel, FIG. 5", "source_text": "Size markers 11 and 17 kDa in the first lane. […] (Ref.http://www.cellsciences.com/PDF/CRE100.pdf)", "data": [{"substance": "plant-made EGF: purified, reconstituted freeze-dried, non-glycosylated, plant-made EGF in a formulation as in Example 5, formulation 1", "values": [{"measurement": "stability of the growth factor", "value": "excellent stability"}]}]}
